Reference: PMC8863855

Molecular target: CD19-Fc (CD19-IgG1 Fc fusion protein) (UniProt P15391)
Assay: flow cytometry on cells
Conditions: for response (% Normalized Binding): n=3 independent donor replicates, untransduced background subtracted, normalized for % CAR-expressing T-cells, read off a plot; for response (% of cells in CD19-Fc binding gate): one representative example, untransduced 2%, not normalized, CD19-Fc concentration not stated for this panel, parent: 46
[1] = CD19-Fc 1.0µg/mL, parent: est. 73
[2] = CD19-Fc 0.5µg/mL, parent: est. 65

Substance | response (% Normalized Binding) [1] | response (% of cells in CD19-Fc binding gate) (myc+ 49% (parent F-2 myc+ 43%)) | response (% Normalized Binding) [2] | response (% of cells in CD19-Fc binding gate) (myc+ 46% (parent F-2 myc+ 43%)) | response (% of cells in CD19-Fc binding gate) (myc+ 43% (parent F-2 myc+ 43%)) | response (% of cells in CD19-Fc binding gate) (myc+ 78% (parent F-2 myc+ 43%)) | response (% of cells in CD19-Fc binding gate) (myc+ 47% (parent F-2 myc+ 43%))
F-2 second generation (CD28+CD3ζ) CAR with the unmodified FMC63 scFv Y04: VH CDR3 …>… (Y>A at CDR3 position 8) | 65 |  | 41 |  |  | 28 | 
F-2 second generation (CD28+CD3ζ) CAR with the unmodified FMC63 scFv G02: VH CDR3 …>… (G>A at CDR3 position 6) | 5.6 |  |  |  |  |  | 2

Further lines, results first:

response (% Normalized Binding) [1] | response (% of cells in CD19-Fc binding gate) (myc+ 49% (parent F-2 myc+ 43%)) | response (% Normalized Binding) [2] | response (% of cells in CD19-Fc binding gate) (myc+ 46% (parent F-2 myc+ 43%)) | response (% of cells in CD19-Fc binding gate) (myc+ 43% (parent F-2 myc+ 43%)) | response (% of cells in CD19-Fc binding gate) (myc+ 78% (parent F-2 myc+ 43%)) | response (% of cells in CD19-Fc binding gate) (myc+ 47% (parent F-2 myc+ 43%)) | Substance
4.4 | 2 |  |  |  |  |  | F-2 second generation (CD28+CD3ζ) CAR with the unmodified FMC63 scFv G01: VH CDR3 …>… (G>A at CDR3 position 5)
100 |  | 70 | 64 |  |  |  | F-2 second generation (CD28+CD3ζ) CAR with the unmodified FMC63 scFv Y05: VH CDR3 …>… (Y>A at CDR3 position 12)
8.6 |  | 1.2 |  | 4 |  |  | F-2 second generation (CD28+CD3ζ) CAR with the unmodified FMC63 scFv Y03: VH CDR3 …>… (Y>A at CDR3 position 4)
